# Reference: publication PMC10656227
# Tests used:
# [1] = target: collagen IV NC1 domains of the NC1 hexamer from market squid lens capsules (market squid (Doryteuthis opalescens)); assay: SDS-PAGE (SDS resistance of the native hexamer); partially purified NC1 hexamer (SEC hexamer fraction); SDS-PAGE with 150 mM NaCl; sample at room temperature; Western blot with JK2 or TCE in-gel visualization
# [2] = target: collagen IV NC1 domains of the NC1 hexamer from rooster liver, kidney and chorioallantoic membrane (rooster (Gallus gallus domesticus)); assay: SDS-PAGE (SDS resistance of the native hexamer); purified NC1 hexamer; Tris-glycine SDS-PAGE with 150 mM NaCl in running buffer and sample buffer; sample at room temperature, not boiled; Coomassie, TCE or Western blot
# [3] = target: collagen IV NC1 domains of the α121 NC1 hexamer from lens capsule basement membrane (bovine); assay: as above
# [4] = target: collagen IV NC1 domains of the NC1 hexamer from leeches (leech (Hirudo medicinalis)); assay: SDS-PAGE (SDS resistance of the native hexamer); straight collagenase digest of tissue or animals; SDS-PAGE with 150 mM NaCl; sample at room temperature; Western blot with JK2
# [5] = target: collagen IV NC1 domains of the NC1 hexamer from leeches (leech (Hirudo medicinalis)); assay: SDS-PAGE (SDS resistance of the native hexamer); straight collagenase digest of tissue or animals; regular SDS-PAGE without Cl^− supplement; sample at room temperature; Western blot with JK2
# [6] = target: collagen IV NC1 domains of the NC1 hexamer from sea clam (sea clam (Spisula solidissima)); assay: SDS-PAGE (SDS resistance of the native hexamer); straight collagenase digest of tissue or animals; SDS-PAGE with 150 mM NaCl; sample at room temperature; Western blot with JK2
# [7] = target: collagen IV NC1 domains of the NC1 hexamer from sea clam (sea clam (Spisula solidissima)); assay: SDS-PAGE (SDS resistance of the native hexamer); straight collagenase digest of tissue or animals; regular SDS-PAGE without Cl^− supplement; sample at room temperature; Western blot with JK2
# [8] = target: collagen IV NC1 domains of the NC1 hexamer from placenta basement membrane (bovine); assay: SDS-PAGE (SDS resistance of the native hexamer); purified NC1 hexamer; Tris-glycine SDS-PAGE with 150 mM NaCl in running buffer and sample buffer; sample at room temperature, not boiled; Coomassie, TCE or Western blot
# [9] = target: collagen IV NC1 domains of the NC1 hexamer from sea squirt (sea squirt (Ciona intestinalis)); assay: SDS-PAGE (SDS resistance of the native hexamer); collagenase digest, soluble fraction; Bis-Tris gel, Mops running buffer with 150 mM NaCl, sample buffer with 400 mM NaCl; sample at room temperature; Western blot with JK2
# [10] = target: collagen IV NC1 domains of the NC1 hexamer from dogfish lens capsule, kidney and intestine (dogfish (Squalus acanthias)); assay: SDS-PAGE (SDS resistance of the native hexamer); purified NC1 hexamer; regular SDS-PAGE without Cl^− supplement; sample at room temperature, not boiled; Coomassie, TCE or Western blot
# [11] = target: collagen IV NC1 domains of the NC1 hexamer from dogfish lens capsule, kidney and intestine (dogfish (Squalus acanthias)); assay: SDS-PAGE (SDS resistance of the native hexamer); purified NC1 hexamer; Tris-glycine SDS-PAGE with 150 mM NaCl in running buffer and sample buffer; sample at room temperature, not boiled; Coomassie, TCE or Western blot
# [12] = target: collagen IV NC1 domains of the NC1 hexamer from mussel (mussel (Mytilus edulis)); assay: SDS-PAGE (SDS resistance of the native hexamer); straight collagenase digest of tissue or animals; SDS-PAGE with 150 mM NaCl; sample at room temperature; Western blot with JK2
# [13] = target: collagen IV NC1 domains of the NC1 hexamer from mussel (mussel (Mytilus edulis)); assay: SDS-PAGE (SDS resistance of the native hexamer); straight collagenase digest of tissue or animals; regular SDS-PAGE without Cl^− supplement; sample at room temperature; Western blot with JK2
# [14] = target: collagen IV NC1 domains of the NC1 hexamer from banded killifish organs (banded killifish (Fundulus heteroclitus)); assay: SDS-PAGE (SDS resistance of the native hexamer); straight collagenase digest of tissue or animals; SDS-PAGE with 150 mM NaCl; sample at room temperature; Western blot with JK2
# [15] = target: collagen IV NC1 domains of the NC1 hexamer from banded killifish organs (banded killifish (Fundulus heteroclitus)); assay: SDS-PAGE (SDS resistance of the native hexamer); straight collagenase digest of tissue or animals; regular SDS-PAGE without Cl^− supplement; sample at room temperature; Western blot with JK2
# [16] = target: collagen IV NC1 domains of the NC1 hexamer from starfish gonads (starfish (Asterias rubens)); assay: SDS-PAGE (SDS resistance of the native hexamer); straight collagenase digest of tissue or animals; SDS-PAGE with 150 mM NaCl; sample at room temperature; Western blot with JK2
# [17] = target: collagen IV NC1 domains of the NC1 hexamer from human kidney (human (Homo sapiens)); assay: SDS-PAGE (SDS resistance of the native hexamer); purified NC1 hexamer; Tris-glycine SDS-PAGE with 150 mM NaCl in running buffer and sample buffer; sample at room temperature, not boiled; Coomassie, TCE or Western blot
# [18] = target: collagen IV NC1 domains of the NC1 hexamer from snapping turtle muscle (snapping turtle (Chelydra serpentina)); assay: SDS-PAGE (SDS resistance of the native hexamer); straight collagenase digest of tissue or animals; SDS-PAGE with 150 mM NaCl; sample at room temperature; Western blot with JK2
# [19] = target: collagen IV NC1 domains of the NC1 hexamer from zebrafish material (zebrafish (Danio rerio)); assay: SDS-PAGE (SDS resistance of the native hexamer); partially purified NC1 hexamer (SEC hexamer fraction); regular SDS-PAGE without Cl^− supplement; sample at room temperature; Western blot with JK2 or TCE in-gel visualization
# [20] = target: collagen IV NC1 domains of the NC1 hexamer from zebrafish material (zebrafish (Danio rerio)); assay: SDS-PAGE (SDS resistance of the native hexamer); partially purified NC1 hexamer (SEC hexamer fraction); SDS-PAGE with 150 mM NaCl; sample at room temperature; Western blot with JK2 or TCE in-gel visualization
# [21] = target: collagen IV NC1 domains of the NC1 hexamer from quick gloss snail (quick gloss snail (Zonitoides arboreus)); assay: SDS-PAGE (SDS resistance of the native hexamer); partially purified NC1 hexamer (SEC hexamer fraction); regular SDS-PAGE without Cl^− supplement; sample at room temperature; Western blot with JK2 or TCE in-gel visualization
# [22] = target: collagen IV NC1 domains of the NC1 hexamer from quick gloss snail (quick gloss snail (Zonitoides arboreus)); assay: SDS-PAGE (SDS resistance of the native hexamer); partially purified NC1 hexamer (SEC hexamer fraction); SDS-PAGE with 150 mM NaCl; sample at room temperature; Western blot with JK2 or TCE in-gel visualization
# [23] = target: collagen IV NC1 domains of the NC1 hexamer from bovine kidney (cow (Bos taurus)); assay: SDS-PAGE (SDS resistance of the native hexamer); purified NC1 hexamer; Tris-glycine SDS-PAGE with 150 mM NaCl in running buffer and sample buffer; sample at room temperature, not boiled; Coomassie, TCE or Western blot
# [24] = target: collagen IV NC1 domains of the NC1 hexamer from African clawed frog kidney (African clawed frog (Xenopus laevis)); assay: SDS-PAGE (SDS resistance of the native hexamer); straight collagenase digest of tissue or animals; SDS-PAGE with 150 mM NaCl; sample at room temperature; Western blot with JK2
# [25] = target: collagen IV NC1 domains of the NC1 hexamer from California blackworms (California blackworm (Lumbriculus variegatus)); assay: as above
# [26] = target: collagen IV NC1 domains of the NC1 hexamer from California blackworms (California blackworm (Lumbriculus variegatus)); assay: SDS-PAGE (SDS resistance of the native hexamer); straight collagenase digest of tissue or animals; regular SDS-PAGE without Cl^− supplement; sample at room temperature; Western blot with JK2
# [27] = target: collagen IV NC1 domains of the NC1 hexamer from axolotl kidney (axolotl (Ambystoma mexicanum)); assay: SDS-PAGE (SDS resistance of the native hexamer); straight collagenase digest of tissue or animals; SDS-PAGE with 150 mM NaCl; sample at room temperature; Western blot with JK2
# [28] = target: collagen IV NC1 domains of the NC1 hexamer from caiman liver (caiman (Caiman crocodilus)); assay: as above
# [29] = target: collagen IV NC1 domains of the NC1 hexamer from green iguana heart and kidney (green iguana (Iguana iguana)); assay: as above
# [30] = target: collagen IV NC1 domains of the NC1 hexamer from green iguana heart and kidney (green iguana (Iguana iguana)); assay: SDS-PAGE (SDS resistance of the native hexamer); straight collagenase digest of tissue or animals; regular SDS-PAGE without Cl^− supplement; sample at room temperature; Western blot with JK2
substance,measurement,setting,value
collagen IV NC1 domains of the NC1 hexamer from market squid lens capsules (domain or fragment),stoichiometry N,[1],6
"collagen IV NC1 domains of the NC1 hexamer from rooster liver, kidney and chorioallantoic membrane (domain or fragment)",stoichiometry N,[2],6
collagen IV NC1 domains of the α121 NC1 hexamer from lens capsule basement membrane (domain or fragment),stoichiometry N,[3],6
collagen IV NC1 domains of the NC1 hexamer from leeches (domain or fragment),stoichiometry N,[4],6
same,stoichiometry N,[5],6
collagen IV NC1 domains of the NC1 hexamer from sea clam (domain or fragment),stoichiometry N,[6],6
same,stoichiometry N,[7],6
collagen IV NC1 domains of the NC1 hexamer from placenta basement membrane (domain or fragment),stoichiometry N,[8],6
collagen IV NC1 domains of the NC1 hexamer from sea squirt (domain or fragment),stoichiometry N,[9],6
"collagen IV NC1 domains of the NC1 hexamer from dogfish lens capsule, kidney and intestine (domain or fragment)",stoichiometry N,[10],6
same,stoichiometry N,[11],6
collagen IV NC1 domains of the NC1 hexamer from mussel (domain or fragment),stoichiometry N,[12],6
same,stoichiometry N,[13],6
collagen IV NC1 domains of the NC1 hexamer from banded killifish organs (domain or fragment),stoichiometry N,[14],6
same,stoichiometry N,[15],6
collagen IV NC1 domains of the NC1 hexamer from starfish gonads (domain or fragment),stoichiometry N,[16],6
collagen IV NC1 domains of the NC1 hexamer from human kidney (domain or fragment),stoichiometry N,[17],6
collagen IV NC1 domains of the NC1 hexamer from snapping turtle muscle (domain or fragment),stoichiometry N,[18],6
collagen IV NC1 domains of the NC1 hexamer from zebrafish material (domain or fragment),stoichiometry N,[19],6
same,stoichiometry N,[20],6
collagen IV NC1 domains of the NC1 hexamer from quick gloss snail (domain or fragment),stoichiometry N,[21],6
same,stoichiometry N,[22],6
collagen IV NC1 domains of the NC1 hexamer from bovine kidney (domain or fragment),stoichiometry N,[23],6
collagen IV NC1 domains of the NC1 hexamer from African clawed frog kidney (domain or fragment),stoichiometry N,[24],6
collagen IV NC1 domains of the NC1 hexamer from California blackworms (domain or fragment),stoichiometry N,[25],6
same,stoichiometry N,[26],6
collagen IV NC1 domains of the NC1 hexamer from axolotl kidney (domain or fragment),stoichiometry N,[27],6
collagen IV NC1 domains of the NC1 hexamer from caiman liver (domain or fragment),stoichiometry N,[28],6
collagen IV NC1 domains of the NC1 hexamer from green iguana heart and kidney (domain or fragment),stoichiometry N,[29],6
same,stoichiometry N,[30],6
